Test results from patent US20200276130A1 (WISCONSIN ALUMNI RESEARCH FOUNDATION, published 2020).

Assays:
[1] = target: T1, GST-CARM1 fusion protein (glutathione S-transferase tagged co-activator associated arginine methyltransferase … (UniProt Q86X55 1-608)); assay: in vitro interaction assay, in vitro translated Flag-PKM2 truncation with GST-CARM1
T1 construct: Expressed in E. coli BL-21, purified on glutathione sepharose; also called GST tagged CARM1; not shown: glutathione S-transferase (GST) tag
T1 sequence (looked up): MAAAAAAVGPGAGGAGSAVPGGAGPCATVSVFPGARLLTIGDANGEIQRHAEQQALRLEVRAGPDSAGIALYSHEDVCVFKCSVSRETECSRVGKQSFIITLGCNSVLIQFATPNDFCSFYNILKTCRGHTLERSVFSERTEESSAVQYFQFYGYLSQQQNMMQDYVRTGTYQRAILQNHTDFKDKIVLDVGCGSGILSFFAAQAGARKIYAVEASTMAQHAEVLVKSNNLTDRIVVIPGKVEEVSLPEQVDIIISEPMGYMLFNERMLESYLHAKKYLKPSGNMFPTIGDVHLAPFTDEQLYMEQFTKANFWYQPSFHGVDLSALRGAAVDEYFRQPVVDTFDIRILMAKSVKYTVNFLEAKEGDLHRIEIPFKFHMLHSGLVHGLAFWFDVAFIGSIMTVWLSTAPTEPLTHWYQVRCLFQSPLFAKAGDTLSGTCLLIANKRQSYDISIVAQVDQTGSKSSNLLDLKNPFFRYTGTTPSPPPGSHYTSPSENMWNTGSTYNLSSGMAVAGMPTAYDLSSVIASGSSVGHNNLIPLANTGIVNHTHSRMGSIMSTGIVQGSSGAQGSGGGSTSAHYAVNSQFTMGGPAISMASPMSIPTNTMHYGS
Method: Flag-tagged full length PKM2 and its truncations constructs were translated by T7 Quick Coupled Translation/Transcription system (Promega). […] The beads were washed 4 times with binding buffer, and recombinant proteins were eluted with 500 μg/ml 3× Flag peptides. Samples were analyzed by SDS-PAGE and Western blotting.

[2] = target: T2, endogenous IP3R3 (inositol 1,4,5-trisphosphate receptor 3) (human, UniProt Q14573 1-2671); assay: anti-Flag M2 resin immunoprecipitation from MCF7 cells, Western blot
T2 construct: Endogenous protein co-precipitated from cell lysate; also called ITPR3

[3] = target: T3, endogenous IP3R1 (inositol 1,4,5-trisphosphate receptor 1) (human, UniProt Q14643 1-2758, limits assumed); assay: as above
T3 construct: Endogenous protein co-precipitated from cell lysate; also called ITPR1

endogenous HSPA9 = target: T4, endogenous HSPA9 (human, UniProt P38646 47-679); assay: anti-Flag co-immunoprecipitation from MCF7 cell lysates, Western blot
T4 construct: Endogenous protein co-precipitated from cell lysate
T4 sequence (P38646 47-679 limits assumed): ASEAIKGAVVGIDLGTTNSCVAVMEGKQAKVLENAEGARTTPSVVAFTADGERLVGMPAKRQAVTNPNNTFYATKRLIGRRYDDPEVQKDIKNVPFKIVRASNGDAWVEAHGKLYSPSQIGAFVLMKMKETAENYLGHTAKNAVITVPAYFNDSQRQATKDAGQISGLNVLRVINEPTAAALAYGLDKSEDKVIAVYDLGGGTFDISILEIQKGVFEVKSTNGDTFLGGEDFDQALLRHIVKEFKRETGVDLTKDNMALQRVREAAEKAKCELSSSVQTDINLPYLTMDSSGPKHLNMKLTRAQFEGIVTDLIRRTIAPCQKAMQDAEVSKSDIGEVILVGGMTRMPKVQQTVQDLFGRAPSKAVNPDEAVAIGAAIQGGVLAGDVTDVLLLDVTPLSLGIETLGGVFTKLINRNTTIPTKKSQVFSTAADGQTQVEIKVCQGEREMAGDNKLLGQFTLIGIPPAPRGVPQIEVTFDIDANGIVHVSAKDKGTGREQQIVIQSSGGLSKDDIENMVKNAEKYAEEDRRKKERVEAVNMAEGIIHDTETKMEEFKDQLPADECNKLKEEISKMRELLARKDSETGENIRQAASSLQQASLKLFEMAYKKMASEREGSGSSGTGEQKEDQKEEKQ

T3 sequence (Q14643 whole entry): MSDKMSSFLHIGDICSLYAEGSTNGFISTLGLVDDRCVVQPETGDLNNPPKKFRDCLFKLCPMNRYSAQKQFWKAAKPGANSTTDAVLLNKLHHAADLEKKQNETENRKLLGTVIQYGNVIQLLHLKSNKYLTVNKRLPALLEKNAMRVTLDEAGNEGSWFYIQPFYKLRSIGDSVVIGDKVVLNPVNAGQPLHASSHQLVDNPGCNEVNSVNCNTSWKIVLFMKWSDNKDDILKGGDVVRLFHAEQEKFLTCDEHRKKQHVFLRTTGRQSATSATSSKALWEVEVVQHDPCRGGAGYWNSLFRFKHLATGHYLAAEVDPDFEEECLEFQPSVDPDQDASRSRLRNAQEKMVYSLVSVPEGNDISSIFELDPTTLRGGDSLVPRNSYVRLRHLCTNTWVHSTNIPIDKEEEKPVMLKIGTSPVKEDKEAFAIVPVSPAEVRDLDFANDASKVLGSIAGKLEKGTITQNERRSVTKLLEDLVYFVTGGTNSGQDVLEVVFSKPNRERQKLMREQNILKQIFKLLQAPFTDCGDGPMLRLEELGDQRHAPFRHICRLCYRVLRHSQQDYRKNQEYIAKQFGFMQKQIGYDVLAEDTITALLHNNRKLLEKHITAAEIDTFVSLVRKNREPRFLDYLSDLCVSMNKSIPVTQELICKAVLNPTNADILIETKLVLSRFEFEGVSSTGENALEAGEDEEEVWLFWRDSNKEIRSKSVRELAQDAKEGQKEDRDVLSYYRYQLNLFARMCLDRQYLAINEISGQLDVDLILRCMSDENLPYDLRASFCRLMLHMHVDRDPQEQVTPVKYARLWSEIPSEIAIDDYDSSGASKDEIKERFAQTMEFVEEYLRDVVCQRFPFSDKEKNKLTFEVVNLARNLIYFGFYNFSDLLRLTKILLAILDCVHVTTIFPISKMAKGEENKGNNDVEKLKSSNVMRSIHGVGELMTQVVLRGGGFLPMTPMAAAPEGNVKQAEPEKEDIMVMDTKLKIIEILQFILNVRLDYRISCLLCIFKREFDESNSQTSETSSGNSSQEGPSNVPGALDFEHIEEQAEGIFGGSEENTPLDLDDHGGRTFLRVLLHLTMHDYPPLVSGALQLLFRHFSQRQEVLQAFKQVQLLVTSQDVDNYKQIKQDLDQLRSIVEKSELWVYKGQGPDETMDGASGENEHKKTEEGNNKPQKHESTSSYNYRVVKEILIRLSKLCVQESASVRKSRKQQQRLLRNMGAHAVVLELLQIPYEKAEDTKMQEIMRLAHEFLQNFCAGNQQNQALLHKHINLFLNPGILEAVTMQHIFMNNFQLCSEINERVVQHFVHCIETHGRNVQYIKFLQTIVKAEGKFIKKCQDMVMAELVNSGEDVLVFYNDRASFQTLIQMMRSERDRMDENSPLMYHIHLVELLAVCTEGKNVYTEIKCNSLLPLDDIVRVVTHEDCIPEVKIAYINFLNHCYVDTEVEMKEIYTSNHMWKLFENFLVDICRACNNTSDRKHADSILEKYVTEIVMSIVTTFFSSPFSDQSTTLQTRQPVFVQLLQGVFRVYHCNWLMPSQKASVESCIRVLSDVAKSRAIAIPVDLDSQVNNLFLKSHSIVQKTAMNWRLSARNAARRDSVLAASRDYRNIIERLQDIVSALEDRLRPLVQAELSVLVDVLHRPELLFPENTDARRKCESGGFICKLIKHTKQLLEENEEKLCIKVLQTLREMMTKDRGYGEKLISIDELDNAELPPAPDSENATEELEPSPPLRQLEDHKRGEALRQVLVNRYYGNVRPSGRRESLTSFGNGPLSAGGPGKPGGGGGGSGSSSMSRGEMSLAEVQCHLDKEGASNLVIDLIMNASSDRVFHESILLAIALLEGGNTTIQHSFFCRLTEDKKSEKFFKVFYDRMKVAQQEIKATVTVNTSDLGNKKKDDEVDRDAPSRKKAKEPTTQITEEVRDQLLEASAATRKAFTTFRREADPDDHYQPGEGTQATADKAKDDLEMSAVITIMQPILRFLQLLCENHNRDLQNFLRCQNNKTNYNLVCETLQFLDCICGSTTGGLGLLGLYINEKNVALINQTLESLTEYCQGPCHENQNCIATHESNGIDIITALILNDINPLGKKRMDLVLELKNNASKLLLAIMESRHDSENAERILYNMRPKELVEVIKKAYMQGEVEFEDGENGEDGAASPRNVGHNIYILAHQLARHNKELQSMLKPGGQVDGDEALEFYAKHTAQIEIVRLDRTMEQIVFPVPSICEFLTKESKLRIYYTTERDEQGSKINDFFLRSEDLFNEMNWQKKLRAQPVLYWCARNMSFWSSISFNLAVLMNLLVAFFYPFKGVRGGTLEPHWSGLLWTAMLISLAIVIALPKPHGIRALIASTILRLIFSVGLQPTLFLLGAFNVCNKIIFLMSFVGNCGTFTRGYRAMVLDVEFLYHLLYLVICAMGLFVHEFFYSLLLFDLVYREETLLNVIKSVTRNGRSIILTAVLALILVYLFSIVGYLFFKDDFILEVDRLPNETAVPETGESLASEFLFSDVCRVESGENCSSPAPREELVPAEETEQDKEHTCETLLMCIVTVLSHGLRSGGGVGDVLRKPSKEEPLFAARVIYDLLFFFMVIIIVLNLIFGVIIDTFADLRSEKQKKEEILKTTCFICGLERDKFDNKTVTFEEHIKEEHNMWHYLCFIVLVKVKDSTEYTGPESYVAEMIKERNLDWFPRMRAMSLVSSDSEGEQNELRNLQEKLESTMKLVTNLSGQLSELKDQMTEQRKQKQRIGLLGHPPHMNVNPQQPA

B1: truncated Flag-PKM2 with truncation of both the C domain and the N/A1 domain (enzyme)
chain: not shown
notes: In vitro translated; also called 48 (as printed, probably delta-8); not shown: Flag tag
binding result [1]: no binding

B2: Flag-tagged PKM2^mut (R445K, R447K and R455K), methylation-defective PKM2 (enzyme)
chain: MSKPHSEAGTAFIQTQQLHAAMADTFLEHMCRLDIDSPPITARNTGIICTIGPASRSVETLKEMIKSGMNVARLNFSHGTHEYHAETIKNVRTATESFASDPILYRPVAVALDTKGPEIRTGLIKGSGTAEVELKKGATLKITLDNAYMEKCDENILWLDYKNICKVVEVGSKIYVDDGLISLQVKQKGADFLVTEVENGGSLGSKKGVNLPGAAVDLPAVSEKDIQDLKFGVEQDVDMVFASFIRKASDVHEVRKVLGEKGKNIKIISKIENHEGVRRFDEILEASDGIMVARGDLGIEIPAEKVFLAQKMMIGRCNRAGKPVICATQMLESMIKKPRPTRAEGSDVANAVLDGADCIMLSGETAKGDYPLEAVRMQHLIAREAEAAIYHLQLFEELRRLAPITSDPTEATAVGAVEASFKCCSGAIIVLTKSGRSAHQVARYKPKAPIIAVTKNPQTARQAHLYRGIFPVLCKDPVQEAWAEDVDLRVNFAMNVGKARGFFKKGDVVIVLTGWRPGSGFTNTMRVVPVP
notes: Stably expressed in MCF7 (and MDA-MB-231) PKM2 KO cells; precipitated with anti-Flag M2 resin; also called PKM2 R445/447/455K; not shown: left out
binding result [2]: no binding | binding result [3]: no binding

B3: Flag-tagged PKM1 (pyruvate kinase M1) (enzyme)
chain: not shown
notes: Purified recombinant protein in the GST pull-down; expressed in MCF7 or HEK293T PKM2 KO cells in the co-immunoprecipitations; also called Flag-PKM1; recombinant PKM1; not shown: Flag tag
binding result (endogenous HSPA9): no binding
